{"source": "the supplement of paper PMC10567573", "parents": {"B1": {"name": "TRIM39 (parent)", "chain": "CKACITRWWEDLERDFPCPVCRKT"}}, "data": [{"variants_of": "B1", "assay": "protein stability index of a GFP-peptide fusion (GPS, HEK-293T) (PSI 1-6); higher = more stable", "details": "c terminus: a fixed tail appended", "values": [{"variant": "CKACITRIWEDLERDFPCPVCRKT", "note": "[W8I]", "protein stability index": 4.26}, {"variant": "CKACITRKWEDLERDFPCPVCRKT", "note": "[W8K]", "protein stability index": 4.6}, {"variant": "CKACITRLWEDLERDFPCPVCRKT", "note": "[W8L]", "protein stability index": 4.19}, {"variant": "CKACITRMWEDLERDFPCPVCRKT", "note": "[W8M]", "protein stability index": 4.62}, {"variant": "CKACITRNWEDLERDFPCPVCRKT", "note": "[W8N]", "protein stability index": 5.12}, {"variant": "CKACITRPWEDLERDFPCPVCRKT", "note": "[W8P]", "protein stability index": 5.08}, {"variant": "CKACITRQWEDLERDFPCPVCRKT", "note": "[W8Q]", "protein stability index": 4.83}, {"variant": "CKACITRRWEDLERDFPCPVCRKT", "note": "[W8R]", "protein stability index": 4.62}, {"variant": "CKACITRSWEDLERDFPCPVCRKT", "note": "[W8S]", "protein stability index": 4.92}, {"variant": "CKACITRTWEDLERDFPCPVCRKT", "note": "[W8T]", "protein stability index": 4.09}, {"variant": "CKACITRVWEDLERDFPCPVCRKT", "note": "[W8V]", "protein stability index": 4.73}, {"variant": "CKACITRYWEDLERDFPCPVCRKT", "note": "[W8Y]", "protein stability index": 4.22}, {"variant": "CKACITRWAEDLERDFPCPVCRKT", "note": "[W9A]", "protein stability index": 4.23}, {"variant": "CKACITRWCEDLERDFPCPVCRKT", "note": "[W9C]", "protein stability index": 4.53}, {"variant": "CKACITRWDEDLERDFPCPVCRKT", "note": "[W9D]", "protein stability index": 4.55}, {"variant": "CKACITRWEEDLERDFPCPVCRKT", "note": "[W9E]", "protein stability index": 4.24}, {"variant": "CKACITRWFEDLERDFPCPVCRKT", "note": "[W9F]", "protein stability index": 4.07}, {"variant": "CKACITRWGEDLERDFPCPVCRKT", "note": "[W9G]", "protein stability index": 4.55}, {"variant": "CKACITRWHEDLERDFPCPVCRKT", "note": "[W9H]", "protein stability index": 5.16}, {"variant": "CKACITRWIEDLERDFPCPVCRKT", "note": "[W9I]", "protein stability index": 3.65}, {"variant": "CKACITRWKEDLERDFPCPVCRKT", "note": "[W9K]", "protein stability index": 4.86}, {"variant": "CKACITRWLEDLERDFPCPVCRKT", "note": "[W9L]", "protein stability index": 3.87}, {"variant": "CKACITRWMEDLERDFPCPVCRKT", "note": "[W9M]", "protein stability index": 4.11}, {"variant": "CKACITRWNEDLERDFPCPVCRKT", "note": "[W9N]", "protein stability index": 4.52}, {"variant": "CKACITRWPEDLERDFPCPVCRKT", "note": "[W9P]", "protein stability index": 4.3}, {"variant": "CKACITRWQEDLERDFPCPVCRKT", "note": "[W9Q]", "protein stability index": 4.69}, {"variant": "CKACITRWREDLERDFPCPVCRKT", "note": "[W9R]", "protein stability index": 4.47}, {"variant": "CKACITRWSEDLERDFPCPVCRKT", "note": "[W9S]", "protein stability index": 4.56}, {"variant": "CKACITRWTEDLERDFPCPVCRKT", "note": "[W9T]", "protein stability index": 4.25}, {"variant": "CKACITRWVEDLERDFPCPVCRKT", "note": "[W9V]", "protein stability index": 4.31}, {"variant": "CKACITRWYEDLERDFPCPVCRKT", "note": "[W9Y]", "protein stability index": 3.75}, {"variant": "CKACITRWWADLERDFPCPVCRKT", "note": "[E10A]", "protein stability index": 4.08}, {"variant": "CKACITRWWCDLERDFPCPVCRKT", "note": "[E10C]", "protein stability index": 3.64}, {"variant": "CKACITRWWDDLERDFPCPVCRKT", "note": "[E10D]", "protein stability index": 4.11}, {"variant": "CKACITRWWFDLERDFPCPVCRKT", "note": "[E10F]", "protein stability index": 3.51}, {"variant": "CKACITRWWGDLERDFPCPVCRKT", "note": "[E10G]", "protein stability index": 3.94}, {"variant": "CKACITRWWHDLERDFPCPVCRKT", "note": "[E10H]", "protein stability index": 3.77}, {"variant": "CKACITRWWIDLERDFPCPVCRKT", "note": "[E10I]", "protein stability index": 3.65}, {"variant": "CKACITRWWKDLERDFPCPVCRKT", "note": "[E10K]", "protein stability index": 3.5}, {"variant": "CKACITRWWLDLERDFPCPVCRKT", "note": "[E10L]", "protein stability index": 3.13}, {"variant": "CKACITRWWMDLERDFPCPVCRKT", "note": "[E10M]", "protein stability index": 3.64}, {"variant": "CKACITRWWNDLERDFPCPVCRKT", "note": "[E10N]", "protein stability index": 4.11}, {"variant": "CKACITRWWPDLERDFPCPVCRKT", "note": "[E10P]", "protein stability index": 3.72}, {"variant": "CKACITRWWQDLERDFPCPVCRKT", "note": "[E10Q]", "protein stability index": 3.56}, {"variant": "CKACITRWWRDLERDFPCPVCRKT", "note": "[E10R]", "protein stability index": 3.06}, {"variant": "CKACITRWWSDLERDFPCPVCRKT", "note": "[E10S]", "protein stability index": 3.78}, {"variant": "CKACITRWWTDLERDFPCPVCRKT", "note": "[E10T]", "protein stability index": 4.08}, {"variant": "CKACITRWWVDLERDFPCPVCRKT", "note": "[E10V]", "protein stability index": 3.16}, {"variant": "CKACITRWWWDLERDFPCPVCRKT", "note": "[E10W]", "protein stability index": 2.92}, {"variant": "CKACITRWWYDLERDFPCPVCRKT", "note": "[E10Y]", "protein stability index": 3.24}, {"variant": "CKACITRWWEALERDFPCPVCRKT", "note": "[D11A]", "protein stability index": 3.71}, {"variant": "CKACITRWWECLERDFPCPVCRKT", "note": "[D11C]", "protein stability index": 3.38}, {"variant": "CKACITRWWEELERDFPCPVCRKT", "note": "[D11E]", "protein stability index": 3.68}, {"variant": "CKACITRWWEFLERDFPCPVCRKT", "note": "[D11F]", "protein stability index": 3.5}, {"variant": "CKACITRWWEGLERDFPCPVCRKT", "note": "[D11G]", "protein stability index": 2.85}, {"variant": "CKACITRWWEHLERDFPCPVCRKT", "note": "[D11H]", "protein stability index": 3.52}, {"variant": "CKACITRWWEILERDFPCPVCRKT", "note": "[D11I]", "protein stability index": 2.53}, {"variant": "CKACITRWWEKLERDFPCPVCRKT", "note": "[D11K]", "protein stability index": 3.5}, {"variant": "CKACITRWWELLERDFPCPVCRKT", "note": "[D11L]", "protein stability index": 3.57}, {"variant": "CKACITRWWEMLERDFPCPVCRKT", "note": "[D11M]", "protein stability index": 3.9}, {"variant": "CKACITRWWENLERDFPCPVCRKT", "note": "[D11N]", "protein stability index": 4.06}, {"variant": "CKACITRWWEPLERDFPCPVCRKT", "note": "[D11P]", "protein stability index": 3.93}, {"variant": "CKACITRWWEQLERDFPCPVCRKT", "note": "[D11Q]", "protein stability index": 3.48}, {"variant": "CKACITRWWERLERDFPCPVCRKT", "note": "[D11R]", "protein stability index": 3.4}, {"variant": "CKACITRWWESLERDFPCPVCRKT", "note": "[D11S]", "protein stability index": 4.28}, {"variant": "CKACITRWWETLERDFPCPVCRKT", "note": "[D11T]", "protein stability index": 3.58}, {"variant": "CKACITRWWEVLERDFPCPVCRKT", "note": "[D11V]", "protein stability index": 3.79}, {"variant": "CKACITRWWEWLERDFPCPVCRKT", "note": "[D11W]", "protein stability index": 3.37}, {"variant": "CKACITRWWEYLERDFPCPVCRKT", "note": "[D11Y]", "protein stability index": 3.31}, {"variant": "CKACITRWWEDAERDFPCPVCRKT", "note": "[L12A]", "protein stability index": 4}, {"variant": "CKACITRWWEDCERDFPCPVCRKT", "note": "[L12C]", "protein stability index": 3.88}, {"variant": "CKACITRWWEDDERDFPCPVCRKT", "note": "[L12D]", "protein stability index": 4.05}, {"variant": "CKACITRWWEDEERDFPCPVCRKT", "note": "[L12E]", "protein stability index": 3.29}, {"variant": "CKACITRWWEDFERDFPCPVCRKT", "note": "[L12F]", "protein stability index": 3.88}, {"variant": "CKACITRWWEDGERDFPCPVCRKT", "note": "[L12G]", "protein stability index": 4.11}, {"variant": "CKACITRWWEDHERDFPCPVCRKT", "note": "[L12H]", "protein stability index": 2.89}, {"variant": "CKACITRWWEDIERDFPCPVCRKT", "note": "[L12I]", "protein stability index": 3.71}, {"variant": "CKACITRWWEDKERDFPCPVCRKT", "note": "[L12K]", "protein stability index": 4.19}, {"variant": "CKACITRWWEDMERDFPCPVCRKT", "note": "[L12M]", "protein stability index": 4.14}, {"variant": "CKACITRWWEDNERDFPCPVCRKT", "note": "[L12N]", "protein stability index": 4.24}, {"variant": "CKACITRWWEDPERDFPCPVCRKT", "note": "[L12P]", "protein stability index": 4.06}, {"variant": "CKACITRWWEDQERDFPCPVCRKT", "note": "[L12Q]", "protein stability index": 3.65}, {"variant": "CKACITRWWEDRERDFPCPVCRKT", "note": "[L12R]", "protein stability index": 3.86}, {"variant": "CKACITRWWEDSERDFPCPVCRKT", "note": "[L12S]", "protein stability index": 4.44}, {"variant": "CKACITRWWEDTERDFPCPVCRKT", "note": "[L12T]", "protein stability index": 4.45}, {"variant": "CKACITRWWEDVERDFPCPVCRKT", "note": "[L12V]", "protein stability index": 3.63}, {"variant": "CKACITRWWEDWERDFPCPVCRKT", "note": "[L12W]", "protein stability index": 3.87}, {"variant": "CKACITRWWEDYERDFPCPVCRKT", "note": "[L12Y]", "protein stability index": 3.43}, {"variant": "CKACITRWWEDLARDFPCPVCRKT", "note": "[E13A]", "protein stability index": 3.36}, {"variant": "CKACITRWWEDLCRDFPCPVCRKT", "note": "[E13C]", "protein stability index": 2.82}, {"variant": "CKACITRWWEDLDRDFPCPVCRKT", "note": "[E13D]", "protein stability index": 3.7}, {"variant": "CKACITRWWEDLFRDFPCPVCRKT", "note": "[E13F]", "protein stability index": 3.37}, {"variant": "CKACITRWWEDLGRDFPCPVCRKT", "note": "[E13G]", "protein stability index": 3.79}, {"variant": "CKACITRWWEDLHRDFPCPVCRKT", "note": "[E13H]", "protein stability index": 3.23}]}]}
